1 molecule from paper PMC6628914 (Frontiers in Immunology, 2019) can be followed below.

The target of this experiment is T1, HIV-1 JRFL envelope (Env, gp120-gp41) on HIV-1 JRFL pseudovirions (HIV-1 JR-FL, UniProt Q75760, strain).
T1 construct: also called HIV-1 JRFL virions; tier-2 JRFL pseudovirus; copies: 3 + 3
Description: FRET or BRET + other: fluorescence correlation spectroscopy (FRET-FCS); all reactants in solution; donor (Alexa 488) and acceptor (Alexa 568) labelled Fabs with virions at 10 μg/ml (about 1.5 virions in the 1 fL focal volume); FRET bursts and diffusion coefficient of the acceptor channel (6 μm^2/s for virion-bound Fab). Particulars: one partner purified. In general terms: BRET reads energy transfer from a luciferase to a nearby fluorophore.

B1: 2G12 Fab, Alexa 488- or Alexa 568-labelled (Fab, V domains shown)
VH: EVQLVESGGGLVKAGGSLILSCGVSNFRISAHTMNWVRRVPGGGLEWVASISTSSTYRDYADAVKGRFTVSRDDLEDFVYLQMHKMRVEDTAIYYCARKGSDRLSDNDPFDAWGPGTVVTVSP
VL: DVVMTQSPSTLSASVGDTITITCRASQSIETWLAWYQQKPGKAPKLLIYKASTLKTGVPSRFSGSGSGTEFTLTISGLQFDDFATYHCQHYAGYSATFGQGTRVEIK
B1: the binding result is reported as “binds”.
